Assay results: PMC4195903
“And” between values parts separate entries of the source, which are not always exact repeats. Equal entries are not always repeated.

Assays:
[1] = biological target: cellular thymidine kinase 1 (TK1), dog (dog (endogenous in ALL cells and mammary tumor tissue)); experiment: SEC; ALL cell extract on Superose 12 (FPLC), 0.01 M HEPES pH 7.6, 0.15 M NH4Cl, 0.02% NaN3; fractions tested for TK1 activity and by immunoaffinity/Western blot
[2] = biological target: cellular thymidine kinase 1 (TK1), dog (dog (endogenous in ALL cells and mammary tumor tissue)); experiment: SEC; CMT tissue extract (dog No. 23) on Superose 12 (FPLC), 0.01 M HEPES pH 7.6, 0.15 M NH4Cl, 0.02% NaN3; fractions tested for TK1 activity and by immunoaffinity/Western blot
[3] = biological target: serum thymidine kinase 1 (sTK1), dog (dog (endogenous in serum)); experiment: SEC; CMT serum (dog No. 23) on Superose 12 (FPLC), 0.01 M HEPES pH 7.6, 0.15 M NH4Cl, 0.02% NaN3; fractions tested for TK1 activity and by immunoaffinity/Western blot

Row | Substance | stoichiometry N [1] | stoichiometry N [2] | stoichiometry N [3]
1 | cellular thymidine kinase 1 (TK1), dog (enzyme) | 2 | 4 | 
2 | serum thymidine kinase 1 (sTK1), dog (enzyme) |  |  | 2 and 4
